Among the data in the supplement of paper PMC12042874 are amyloid nucleation score values, retold here.

± gives the uncertainty stated by the source.

A short description of this data set: amyloid nucleation score (Sup35N fusion, yeast selection) (log enrichment); library NNK1; higher = more nucleation; inactive = no reads after selection. The essentials: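 The nucleation score is the DiMSum log enrichment of output over input reads, centred on the mode score of non-aggregating sequences. Only sequences with 100 or more input reads were scored, using Illumina sequencing of input and output plasmid inserts. Psi-negative yeast expressing Sup35N fused to peptides of 20 random codons were induced 24 hours with 100 μM copper sulfate and grown 7 days at 30°C on medium lacking adenine and uracil.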
PDFNPMSVVNGCSGSRWLNA: the amyloid nucleation score is -0.676 ± 0.75.

PDIRYAFVNFDYLATIWVNG yielded an amyloid nucleation score of -1.86 ± 1.7.

PDLTSCDVIVIWGFGRG gave an amyloid nucleation score of -0.118 ± 1.

With PDRRQSN, the amyloid nucleation score result is “inactive”.

The substance PEARWWERMDKGCMKVFHFK displayed an amyloid nucleation score of 0.945 ± 0.44.

Substance PECTNDKVY displayed an amyloid nucleation score of 0.541 ± 0.52.

Substance PETFLPTSRVPEMGKLDTLS yielded an amyloid nucleation score of 0.456 ± 0.22.

Consider PFLFVEIYDNGGSW, for which the amyloid nucleation score stood at 1.36 ± 0.37.

In turn, PFLNVEHFVMVDRFIVPDI registered an amyloid nucleation score of 0.559 ± 0.79.

Regarding PFNQLDFTVAYYLSCAH, the amyloid nucleation score is -0.482 ± 0.63.

Regarding PFRVLWTCITG, the amyloid nucleation score is -0.229 ± 1.4.

In turn, PFTHHHKCLVHRLLCRLQHE came in with an amyloid nucleation score of 0.616 ± 0.79.

In turn, PGCESARRLKLRVSLKLRGK came in with an amyloid nucleation score of -0.731 ± 1.1.

Turning to PGGYM, the amyloid nucleation score was found to be 0.597 ± 0.52.

PGMKISSFCYTTMNHYNKSF had an amyloid nucleation score of -0.375 ± 1.2.

The substance PGRSTHDIRSGPAEYTDSVC registered an amyloid nucleation score of 0.487 ± 0.63.

In turn, PGSVDCTVGD returned an amyloid nucleation score of -0.048 ± 0.65.

As to PGVNKVHLYKESIIYLLAVS, the amyloid nucleation score result was “inactive”.

PHRFVN came in with an amyloid nucleation score of -0.188 ± 0.3.

Regarding PIFMVSLST, the amyloid nucleation score was -0.661 ± 0.66.

As for PIFSYFALFLGLIKHCIMSQ, the amyloid nucleation score is -0.238 ± 0.53.

For PILSNLHIPMCPENVNGRGS, the amyloid nucleation score was found to be 0.939 ± 0.33.

Regarding PINYVDRIRYVCMWCLFVAF, the amyloid nucleation score result was “inactive”.

Take PISMKQVKREEMGFTPAVSS: the amyloid nucleation score was -0.352 ± 0.95.

Consider PITFS, for which the amyloid nucleation score was 0.448 ± 0.68.

Consider PKLRKLVSFYVSYIPGGGYG, for which the amyloid nucleation score was -0.106 ± 0.93.

Substance PLEKVFVGPSADASNEEHRL returned an amyloid nucleation score of -0.883 ± 1.1.

Regarding PLFLQCLWKNSLDLGMKDLS, the amyloid nucleation score is -0.327 ± 1.4.

For PLLLNEVKRL, the amyloid nucleation score was found to be 0.614 ± 0.29.

The substance PLRNRNCVPYPHDCLSTSLI returned an amyloid nucleation score of -0.816 ± 1.3.

As to PLRSRSGVSL, the amyloid nucleation score amounted to 1.09 ± 0.62.

Take PLRTLPEQRCW: the amyloid nucleation score is -0.006 ± 0.29.

For the substance PLTKVFV, the amyloid nucleation score was 0.167 ± 0.82.

Substance PLWAPNSSNFAINRNQWRFN displayed an amyloid nucleation score of 0.11 ± 0.57.

With PLYLW, the amyloid nucleation score result is “inactive”.

In turn, PMLFGVGRSFE came in with an amyloid nucleation score of -0.377 ± 0.27.

Regarding PMMLDDTPKRSKQPHWIGGH, the amyloid nucleation score is -0.584 ± 2.1.

On to PMYWLPIFLS, for which the amyloid nucleation score result is “inactive”.

The substance PNNKE gave an amyloid nucleation score of 0.638 ± 0.33.

Substance PPLVHSAHYVMKILKSCN gave an amyloid nucleation score of -1.5 ± 2.7.

PPMDIGLLPVRI yielded an amyloid nucleation score of -1.69 ± 1.7.

PQEFLFHTDQRSGCVITETS yielded an amyloid nucleation score of 0.179 ± 0.57.

PQVVRRGTHKVGRDNG displayed an amyloid nucleation score of 0.186 ± 1.6.

As for PRRHYGLRFGHGHLISVWLR, the amyloid nucleation score is 0.642 ± 0.41.

For the substance PRSVVSTEPSGTVGVPKENK, the amyloid nucleation score is -0.839 ± 0.62.

In the case of PRTYMIRNWKSTNNSLASPK, the amyloid nucleation score is -1.09 ± 1.5.

In turn, PRVLHTSVGFCLFNEYCSTT showed an amyloid nucleation score of 2.45 ± 0.18.

PSRNLVRVDPFLGIRQMVSS displayed an amyloid nucleation score of -0.096 ± 1.

PSSKCGCWTTPEMIEGYRNL: the amyloid nucleation score is -0.119 ± 0.51.

In turn, PSSTNMGRDGWLDCQVHTFE gave an amyloid nucleation score of -0.009 ± 0.28.

Substance PSTREYFNCTKMAYYCIRRP displayed an amyloid nucleation score of -0.005 ± 1.7.

PTDRVVLNCM: the amyloid nucleation score entry was “inactive”.

PTIFFDYAHYQTGRVLMAL displayed an amyloid nucleation score of 0.408 ± 0.35.

With PTPILFCYQRCLGVYYMDET, the amyloid nucleation score amounted to 0.198 ± 0.4.

Consider PTRLLLVSDRVTVHELF, for which the amyloid nucleation score result was “inactive”.

For PVDNYFIMTTHDKLNRPGHD, the amyloid nucleation score was -1.85 ± 1.

In turn, PVHNRVINRILGSSLEVLEN came in with an amyloid nucleation score of -0.123 ± 0.31.

PVLWASMVN gave an amyloid nucleation score of -0.243 ± 0.49.

The substance PVRVYIGGEDACMKSTKHMY registered an amyloid nucleation score of 5.65 ± 0.085.

PVSFRILIVEVGLLCRLGAI came in with an amyloid nucleation score of 0.165 ± 0.75.

As to PWISFTKYKTLSYETHPGWF, the amyloid nucleation score turned out to be 0.544 ± 0.79.

Substance PYAWSVNC had an amyloid nucleation score of -0.579 ± 0.4.

Take PYFINST: the amyloid nucleation score was 1.75 ± 0.53.

PYLGHR showed an amyloid nucleation score of -1.55 ± 1.4.

Substance PYLSRTRISIVNMCSICGLI gave an amyloid nucleation score of 1.34 ± 0.44.

In turn, PYTWTTTVPSAPKGLF yielded an amyloid nucleation score of 0.096 ± 0.48.

In turn, PYVEIAWS returned an amyloid nucleation score of -1.19 ± 0.85.

With PYWLINIQEVTTD, the amyloid nucleation score amounted to 0.654 ± 0.48.

PYYRLHANLPDEKRSTAILI returned an amyloid nucleation score of -0.378 ± 0.55.

QAFGRLSLATQPLLMEPRRL: the amyloid nucleation score stood at 0.868 ± 0.41.

QAKPLMLNV came in with an amyloid nucleation score of -0.96 ± 1.9.

Substance QAVSRHNGSSVVTVRFKLSP displayed an amyloid nucleation score of 1.49 ± 0.52.

For QCSLRPVPRKDALSFLGLML, the amyloid nucleation score was -0.363 ± 0.35.

Take QCTVGASMD: the amyloid nucleation score was found to be 0.169 ± 0.34.

Substance QDGPIIFWDMVYFSFYFKH registered an amyloid nucleation score of -0.925 ± 1.2.

In the case of QDKAVIANNRWTKMCGRLDC, the amyloid nucleation score was determined as 1 ± 0.59.

In turn, QDRHYRNAKGSNSCYIRRKS had an amyloid nucleation score of 1 ± 0.35.

As for QDRYR, the amyloid nucleation score is 0.156 ± 0.56.

Turning to QDWHDYLYGKFIGNNYGKYI, the amyloid nucleation score was found to be 1.44 ± 0.47.

With QELPFRRSYNLSNCSDNWHS, the amyloid nucleation score result was “inactive”.

QERTMVLMLHMYYSGCAILM gave an amyloid nucleation score of 0.761 ± 0.56.

QESEMVCDLSGMAFLSGLVY gave an amyloid nucleation score of -0.442 ± 0.51.

Substance QFCMKSTPMSHFR displayed an amyloid nucleation score of -0.772 ± 0.61.

QFFQPCVKC had an amyloid nucleation score of 1.06 ± 0.57.

The substance QFHFMPWIDMSFSHLVHVYG came in with an amyloid nucleation score of -0.741 ± 0.29.

For the substance QFSYTRIEVVSDVHLVNVVN, the amyloid nucleation score amounted to 0.373 ± 0.3.

Consider QFWHYGF, for which the amyloid nucleation score is -1.04 ± 2.4.

The substance QGLLPDIYVALSLCGVPGTD had an amyloid nucleation score of -0.262 ± 0.59.

Regarding QGLSGDDCLHGNFKFHMSET, the amyloid nucleation score was -0.243 ± 0.32.

Regarding QGWSMVWYYSLESEETT, the amyloid nucleation score was -0.377 ± 0.6.

Take QGYASLGTQRTRPGYGKFGE: the amyloid nucleation score was 0.382 ± 0.27.

For QHHLIGMVRSIGEKMLAKNQ, the amyloid nucleation score is 0.094 ± 0.34.

Turning to QHKTRQYHVSPVRVTIL, the amyloid nucleation score was determined as 0.135 ± 0.65.

The substance QHWAGIPDLAF returned an amyloid nucleation score of 0.547 ± 0.64.

For the substance QIFYSFTLYCNRNGWRDVFL, the amyloid nucleation score was 0.269 ± 0.59.

In turn, QIWPKAWPLFWPRNRKYANR registered an amyloid nucleation score of -0.077 ± 0.26.

In the case of QIYKVDGYFQVGILLLSPVP, the amyloid nucleation score is -1.29 ± 0.95.

In turn, QKNCT returned an amyloid nucleation score of 1.01 ± 0.34.

For QKVHANSMM, the amyloid nucleation score was found to be 0.973 ± 0.9.

As for QKWVFVEVCSCRVSLTNLVL, the amyloid nucleation score was 0.233 ± 0.35.

On to QLETTLFGNAEACLFSSKGR, for which the amyloid nucleation score was determined as 0.522 ± 0.49.

As for QLLSLCLDQTVKRRYFNFRA, the amyloid nucleation score was -0.073 ± 0.26.

As to QLSDVSRWSFIWLKGGQRST, the amyloid nucleation score amounted to 0.334 ± 0.84.

Turning to QLSVVNFKEM, the amyloid nucleation score was -0.219 ± 0.7.

Substance QMSVAG gave an amyloid nucleation score of 1.38 ± 0.28.
